FireProtDB (doi:10.1006/jmbi.2000.3958)

Settings: Schizosaccharomyces pombe (strain 972 / ATCC 24843); pH 7.5; 25 °C; Urea; Fluorescence; Tris 50 mM; whole UniProt chain shown

B1: Cyclin-dependent kinases regulatory subunit wild type, P08463 (protein)
chain: MSKSGVPRLLTASERERLEPFIDQIHYSPRYADDEYEYRHVMLPKAMLKAIPTDYFNPETGTLRILQEEEWRGLGITQSLGWEMYEVHVPEPHILLFKREKDYQMKFSQQRGG
With B1 the denaturant m value was 1.63 kcal/mol/M and the “denaturant midpoint (higher = more stable)” value was 4.42 M.
